Patent publication US20250059282A1 (University of Texas, published 2025)
Like-named read-outs stand apart in the source and are kept apart here.

T1: Human PD-L2-Fc (human, UniProt Q9BQ51 20-220)
T1 construct: also called dimeric PD-L2; PD-L2 (dimeric ligand); not shown: human IgG1 Fc constant region
T1 sequence: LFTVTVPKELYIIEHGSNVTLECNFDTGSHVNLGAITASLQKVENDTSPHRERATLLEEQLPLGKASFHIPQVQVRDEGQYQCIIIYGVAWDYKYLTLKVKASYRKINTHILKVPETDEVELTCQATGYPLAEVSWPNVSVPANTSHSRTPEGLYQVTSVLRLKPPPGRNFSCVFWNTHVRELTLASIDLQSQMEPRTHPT

T2: Cyno PD-L2-Fc (cynomolgus, UniProt A0A2K5U5Z4 20-220)
T2 construct: also called cynomolgus PD-L2; not shown: Fc
T2 sequence: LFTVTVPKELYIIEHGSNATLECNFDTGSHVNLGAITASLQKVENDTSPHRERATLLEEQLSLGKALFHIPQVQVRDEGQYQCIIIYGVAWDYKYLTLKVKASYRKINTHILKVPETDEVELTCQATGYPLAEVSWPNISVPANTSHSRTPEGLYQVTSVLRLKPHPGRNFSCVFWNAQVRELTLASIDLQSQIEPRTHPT

T3: Mouse PD-L2-Fc (mouse, UniProt Q9WUL5 20-219, limits assumed)
T3 construct: also called murine PD-L2; not shown: Fc
T3 sequence (looked up): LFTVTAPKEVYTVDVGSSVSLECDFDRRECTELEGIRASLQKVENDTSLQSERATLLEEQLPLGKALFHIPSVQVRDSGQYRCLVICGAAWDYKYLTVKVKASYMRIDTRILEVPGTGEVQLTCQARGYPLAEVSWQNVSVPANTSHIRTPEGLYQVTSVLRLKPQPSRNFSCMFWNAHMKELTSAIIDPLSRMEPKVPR

T4: Human b-PD-L2-His (human, UniProt Q9BQ51 20-220, biotinylated (b-); sites not stated)
T4 construct: Antigen of the MSD-SET measurements; also called biotinylated human PD-L2-His; not shown: His tag
T4 sequence: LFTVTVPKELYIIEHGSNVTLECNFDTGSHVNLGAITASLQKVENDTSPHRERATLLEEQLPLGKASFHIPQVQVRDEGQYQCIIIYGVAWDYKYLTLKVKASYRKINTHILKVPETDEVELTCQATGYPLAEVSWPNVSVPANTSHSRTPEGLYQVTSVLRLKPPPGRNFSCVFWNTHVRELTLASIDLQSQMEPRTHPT


Columns and labels:
[1] = target: T5, Human PD-L1-Fc (human, UniProt Q9NZQ7 19-238); experiment: ForteBio Octet, IgG, avid
T5 construct: also called dimeric PD-L1; PD-L1 (dimeric ligand); not shown: human IgG1 Fc constant region

[2] = target: T1, Human PD-L2-Fc; experiment: ForteBio Octet, IgG, avid
[3] = target: T6, Cyno PD-L1-Fc (cynomolgus, UniProt G7PSE7 19-238); experiment: ForteBio Octet, IgG, avid
T6 construct: also called cynomolgus PD-L1

[4] = target: T2, Cyno PD-L2-Fc; experiment: ForteBio Octet, IgG, avid
[5] = target: T7, Mouse PD-L1-Fc (mouse, UniProt Q9EP73 19-239, limits assumed); experiment: ForteBio Octet, IgG, avid
T7 construct: also called murine PD-L1; not shown: Fc

[6] = target: T3, Mouse PD-L2-Fc; experiment: ForteBio Octet, IgG, avid
[7] = target: T8, Human b-PD-L1-His (human, UniProt Q9NZQ7 19-238, biotinylated (b-); sites not stated); experiment: MSD-SET, Fab, monovalent
T8 construct: Antigen of the MSD-SET measurements; also called biotinylated human PD-L1-His; not shown: His tag
Experimental: (§1) Briefly, solution equilibrium titrations (SET) were performed in PBS +0.1% IgG-Free BSA (PBSF) with antigen held constant at 50 pM and incubated with 3- to 5-fold serial dilutions of Fab starting at 20 nM. Antibodies (20 nM in PBS) were coated onto standard bind MSD®-ECL plates overnight at 4° C. or at room temperature for 30 min. Plates were then blocked by BSA for 30 min with shaking at 700 rpm, followed by three washes with wash buffer (PBSF+0.05% Tween 20). SET samples were applied and incubated on the plates for 150 s with shaking at 700 rpm followed by one wash. Antigen captured on a plate was detected with 250 ng/mL sulfotag-labeled streptavidin in PBSF by incubation on the plate for 3 min. The plates were washed three times with wash buffer and then read on the MSD® Sector Imager 2400 instrument using 1× Read Buffer T with surfactant. The percent free antigen was plotted as a function of titrated antibody in Prism and fit to a quadratic equation to extract the KD. To improve throughput, liquid handling robots were used throughout MSD®-SET experiments, including SET sample preparation.

[8] = target: T4, Human b-PD-L2-His; experiment: MSD-SET, Fab, monovalent
Experimental: as §1

[9] = target: T8, Human b-PD-L1-His; experiment: MSD-SET, Fab, monovalent; remark: listed apart in the source
Experimental: as §1

[10] = target: T4, Human b-PD-L2-His; experiment: MSD-SET, Fab, monovalent; remark: listed apart in the source
Experimental: as §1

[11] = target: T5, Human PD-L1-Fc; experiment: ForteBio, Fab, monovalent
Experimental: (§2) ForteBio KD measurements—ForteBio affinity measurements were performed on an Octet® RED384 generally as previously described (see, e.g., Estep et al., 2013). Briefly, ForteBio affinity measurements were performed by loading IgGs on-line onto AHQ sensors. Sensors were equilibrated off-line in assay buffer for 30 min and then monitored on-line for 60 seconds for baseline establishment. Sensors with loaded IgGs were exposed to 100 nM antigen for 3 minutes, and afterwards were transferred to assay buffer for 3 min for off-rate measurement. For monovalent affinity assessment Fabs were used instead of IgGs. For this assessment the […] Fc fusion antigen was loaded on-line onto the AHQ sensors. Sensors were equilibrated off-line in assay buffer for 30 min and then monitored on-line for 60 seconds for baseline establishment. Sensors with loaded antigen were exposed to 100 nM Fab for 3 minutes, and afterwards they were transferred to assay buffer for 3 min for off-rate measurement. All kinetics were analyzed using the 1:1 binding model.

[12] = target: T1, Human PD-L2-Fc; experiment: ForteBio, Fab, monovalent
Experimental: as §2

[13] = target: T5, Human PD-L1-Fc; experiment: ForteBio Octet, Fab, monovalent
Experimental: as §2

[14] = target: T1, Human PD-L2-Fc; experiment: ForteBio Octet, Fab, monovalent
Experimental: as §2

T5 sequence (Q9NZQ7 19-238 limits assumed): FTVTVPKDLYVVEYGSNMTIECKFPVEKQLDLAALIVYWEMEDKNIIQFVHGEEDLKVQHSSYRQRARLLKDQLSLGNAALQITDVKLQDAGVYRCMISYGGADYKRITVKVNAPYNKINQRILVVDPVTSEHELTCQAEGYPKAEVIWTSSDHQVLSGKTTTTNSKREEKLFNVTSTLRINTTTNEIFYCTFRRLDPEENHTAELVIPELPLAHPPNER
T8 sequence (Q9NZQ7 19-238 limits assumed): as above
T6 sequence (G7PSE7 entry or part of it limits assumed): as the sequence (Q9NZQ7 19-238 limits assumed) above, with A33T, A34S, S62N, R68Q, Q82R, F173L, T185A, T192I, H215L counted along it
T7 sequence (Q9EP73 19-239 limits assumed): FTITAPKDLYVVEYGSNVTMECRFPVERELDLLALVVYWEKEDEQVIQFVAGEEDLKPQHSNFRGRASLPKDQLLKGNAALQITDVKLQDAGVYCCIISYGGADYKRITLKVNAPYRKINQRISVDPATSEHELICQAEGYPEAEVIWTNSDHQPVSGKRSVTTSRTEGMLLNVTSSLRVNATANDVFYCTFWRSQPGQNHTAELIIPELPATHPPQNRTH

Row | Binder | Kd [1] | Kd [2] | Kd [3] | Kd [4] | binding result [5] | Kd [6] | Kd [7] | Kd [8] | Kd [9] | Kd [10] | Kd [11] | Kd [12] | Kd [13] | Kd [14]
1 | BiPDL3-13 (antibody, V domains shown, Third generation, IgG) VH: QVQLQQWGAGLLKPSETLSLTCAVYGGSLSGYPWSWIRQPPGKGLEWIGETDVSGWTDYNPSLKSRVTISVDTSKNQFSLKLSSVTAADTAVYYCARDGRRMGTPSFDIWGQGTMVTVSS VL: DIQLTQSPSSVSASVGDRVTITCRASQGISSWLAWYQQKPGKAPKLLIYAASSLQSGVPSRFSGSGSGTDFTLTISSLQPEDFATYYCQQYVYFPPTFGGGTKVEIK | 3.28 nM | 0.431 nM | 2.34 nM | 0.688 nM | no binding (tested: 100 nM antigen) | 1.22 nM |  |  |  |  |  |  |  | 
2 | BiPDL4-34 Fab (Fab, V domains shown, Fab made by papain digestion of the IgG) VH: QVQLVESGGGVIQPGRSLRLSCAASGFTFSAYLMHWVRQAPGKGLEWVAAIGYDGMNKYYADSVKGRFTISRDNSKNTLYLQMNSLRAEDTAVYYCARAGIEYSYAYTDYWGQGTLVTVSS VL: EIVLTQSPGTLSLSPGERATLSCRASQFVYSSDLAWYQQKPGQAPRLLIYGASARAAGIPDRFSGSGSGTDFTLTISRLEPEDFAVYYCMQFGWWPPRTFGGGTKVEIK |  |  |  |  |  |  | 0.96 nM | 0.052 nM | 0.96 nM | 0.052 nM | 2.17 nM | 0.56 nM | 6.85 nM | 0.56 nM
3 | BiPDL4-14 Fab (Fab, V domains shown, Fab made by papain digestion of the IgG) VH: QVQLVESGGGVVQPGRSLRLSCAASGFTFDEYGMHWVRQAPGKGLEWVAVIGYDGLNKYYADSVKGRFTISRDNSKNTLYLQMNSLRAEDTAVYYCARAGIEYSYAYTDYWGQGTLVTVSS VL: EIVLTQSPGTLSLSPGERATLSCRASQFVYSSDLAWYQQKPGQAPRLLIYGASTRKTGIPDRFSGSGSGTDFTLTISRLEPEDFAVYYCLQFGWWPPRTFGGGTKVEIK |  |  |  |  |  |  | 0.12 nM | 0.11 nM | 0.12 nM | 0.11 nM | 0.692 nM | 0.402 nM | 2.26 nM | 0.402 nM
